How the values were obtained:
[1] = target: T1, 108QSD110-->PPS; assay: SPR, ProteOn XPR36, 25 C; mAb captured on anti-Fc surface, ST2L-D1D2 (HH-ST2L) variant injected; 1:1 model
T1 receptor fragment (Domains I and II): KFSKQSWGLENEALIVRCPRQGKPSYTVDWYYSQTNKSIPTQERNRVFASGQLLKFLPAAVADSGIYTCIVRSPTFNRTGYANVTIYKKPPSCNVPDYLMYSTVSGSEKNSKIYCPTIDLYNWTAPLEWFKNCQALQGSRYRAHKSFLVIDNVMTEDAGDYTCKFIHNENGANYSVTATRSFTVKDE
Protocol: (§1) Binding studies were performed using the ProteOn XPR36 Protein Interaction Array system (Bio-Rad) (Bravman T, et al. Anal Biochem 358:281-288, 2006). […] Individual anti-ST2L mAb was then captured by flowing (1 μg/mL) antibody solution prepared in PBS containing 0.5% Nonidet P-40 and 0.5% Na-deoxycholate). The signal in the surfaces reached ˜250 resonance units (RU, 1 RU=1 pg protein/mm²) in the anti-Fc-coated surfaces, confirming that these antibodies specifically capture anti-ST2L mAbs. After 90° rotation of the fluid system, wild type of ST2L-D1D2 or variant proteins (0.5 mg/mL in PBS containing 0.5% Nonidet P-40 and 0.5% Na-deoxycholate) was injected in the parallel flow channels. All of these assays were performed at 25° C. The ST2L-D1D2-dependent signals on the surfaces were obtained by double referencing, subtracting the response observed on surfaces immobilizing the antibodies alone, and the signal observed injecting the vehicle alone (which allows correction for binding-independent responses). The resulting sensorgrams were fitted by the simplest 1:1 interaction model (ProteOn analysis software), to obtain the corresponding association and dissociation rate constants (kₐ and kd).

[2] = target: T2, A78R; assay: as above
T2 construct: also called HH-ST2L (ST2L-D1D2) variant A78R
T2 receptor fragment (Domains I and II): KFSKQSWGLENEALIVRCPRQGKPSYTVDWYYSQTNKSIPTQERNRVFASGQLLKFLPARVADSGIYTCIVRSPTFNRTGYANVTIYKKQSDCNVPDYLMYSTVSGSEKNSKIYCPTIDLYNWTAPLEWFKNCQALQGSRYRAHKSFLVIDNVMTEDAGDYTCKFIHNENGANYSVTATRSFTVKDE
Protocol: as §1

[3] = target: T3, E61K; assay: as above
T3 construct: also called HH-ST2L (ST2L-D1D2) variant E61K
T3 receptor fragment (Domains I and II): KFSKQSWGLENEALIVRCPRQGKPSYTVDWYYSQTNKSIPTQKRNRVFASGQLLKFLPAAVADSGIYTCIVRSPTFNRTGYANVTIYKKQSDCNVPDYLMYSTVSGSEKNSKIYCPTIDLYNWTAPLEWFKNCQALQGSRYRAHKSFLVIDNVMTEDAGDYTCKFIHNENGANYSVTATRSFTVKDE
Protocol: as §1

[4] = target: T4, A80E; assay: as above
T4 construct: also called HH-ST2L (ST2L-D1D2) variant A80E
T4 receptor fragment (Domains I and II): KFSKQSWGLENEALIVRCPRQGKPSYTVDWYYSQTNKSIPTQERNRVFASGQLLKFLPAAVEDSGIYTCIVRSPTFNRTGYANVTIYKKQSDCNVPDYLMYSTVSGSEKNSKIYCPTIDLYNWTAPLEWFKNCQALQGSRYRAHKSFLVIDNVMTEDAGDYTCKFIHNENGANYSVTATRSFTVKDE
Protocol: as §1

[5] = target: T5, K55E; assay: as above
T5 construct: also called HH-ST2L (ST2L-D1D2) variant K55E
T5 receptor fragment (Domains I and II): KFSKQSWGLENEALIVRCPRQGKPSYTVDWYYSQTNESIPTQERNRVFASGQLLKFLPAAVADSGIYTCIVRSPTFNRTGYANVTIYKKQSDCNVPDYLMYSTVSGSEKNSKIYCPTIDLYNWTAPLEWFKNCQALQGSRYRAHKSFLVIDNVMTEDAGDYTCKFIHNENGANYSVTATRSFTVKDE
Protocol: as §1

[6] = target: T6, HH-ST2L variant 93NL94 (substitution 93TF94 to 93NL94) (human, UniProt Q01638 19-205); assay: ProteOn SPR, mAb captured by anti-Fc, ST2L-D1D2 variant injected
T6 chain: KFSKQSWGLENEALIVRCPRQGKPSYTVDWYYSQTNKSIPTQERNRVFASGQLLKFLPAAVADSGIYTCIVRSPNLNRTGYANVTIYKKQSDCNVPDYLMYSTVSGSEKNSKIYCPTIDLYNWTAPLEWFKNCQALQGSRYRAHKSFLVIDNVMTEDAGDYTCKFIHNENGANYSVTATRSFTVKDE
Protocol: as §1
(§2) Residue numbering is according to full length human ST2L of SEQ ID NO: 1.

[7] = target: T7, HH-ST2L (human ST2L Domains I and II), wild type (human, UniProt Q01638 19-205); assay: ProteOn SPR, mAb captured by anti-Fc, ST2L-D1D2 injected
T7 construct: also called ST2L-D1D2
T7 sequence: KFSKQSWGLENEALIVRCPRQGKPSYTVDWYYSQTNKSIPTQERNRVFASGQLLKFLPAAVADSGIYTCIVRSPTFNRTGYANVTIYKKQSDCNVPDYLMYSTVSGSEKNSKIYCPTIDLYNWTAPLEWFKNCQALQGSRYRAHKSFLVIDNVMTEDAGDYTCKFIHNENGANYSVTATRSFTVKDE
Protocol: as §1, §2

B1: STLM208 (antibody, V domains shown)
VH: EVQLLESGGGLVQPGGSLRLSCAASGFTFSIYDMIWVRQAPGKGLEWVSSIRGEGGGTYYADSVKGRFTISRDNSKNTLYLQMNSLRAEDTAVYYCARDPWSTEGSFFVLDYWGQGTLVTVSS
VL: EIVLTQSPATLSLSPGERATLSCRASQSVDDDLAWYQQKPGQAPRLLIYDASNRATGIPARFSGSGSGTDFTLTISSLEPEDFAVYYCQQYITAPLTFGQGTKVEIK
notes: frameworks VH3-23 / Vk-L6
Work on B1 yielded a Kd [1] of 10 pM, a koff [1] of 0.000119 s⁻¹ and a kon [1] of 1.28e+07 M⁻¹ s⁻¹. It also gave a Kd [2] of 10.4 pM, a koff [2] of 0.00013 s⁻¹ and a kon [2] of 1.24e+07 M⁻¹ s⁻¹. It also gave a Kd [3] of 8.1 pM, a koff [3] of 0.000126 s⁻¹ and a kon [3] of 1.55e+07 M⁻¹ s⁻¹. For the same binder, the Kd [4] was 11 pM, the koff [4] was 0.000127 s⁻¹ and the kon [4] was 1.15e+07 M⁻¹ s⁻¹. For the same binder, the Kd [5] was 10 pM, the koff [5] was 0.000129 s⁻¹ and the kon [5] was 1.26e+07 M⁻¹ s⁻¹. The Kd [6] was ~49.5 pM, the “fold reduction of binding affinity against wild type ST2L-D1D2” value [6] was ~5 fold and the Kd [7] was ~10.8 pM.
